According to paper PMC12269619:

Key:
[1] = target: PfCSPm; experiment: BLI; KD1
[2] = target: Biotinylated junctional peptide NPDP19 (Plasmodium falciparum (clone 3D7)) (UniProt Q7K740); experiment: BLI
[3] = target: PfCSPm; experiment: BLI; KD2, second site

CIS43 mature
Kd [1]: 0.0452 µM | Kd [2]: 0.0086 µM | Kd [3]: 1.3 µM
